Nine molecules from patent US20180036405A1 (Regeneron, published 2018) can be followed below.

Assay [1] concerns the target T1, human dimeric EGFR (EGFR.mFc) (human).
T1 construct: Soluble dimeric EGFR construct
In words: SPR 37C, mAb captured by anti-human Fc, EGFR.mFc analyte. The procedure: (§1) Different concentrations of human monomeric (EGFR.mmh; SEQ ID NO:386) and dimeric (EGFR.mFc; SEQ ID NO:387) proteins were injected over the anti-EGFR monoclonal antibody captured surface at a flow rate of 50 μI/min. Antibody-antigen association was monitored for 4-5 minutes while dissociation of antigen from the captured monoclonal antibody surface was monitored for 10 min. Kinetic association (kₐ) and dissociation (kd) rate constants were determined by processing and fitting the data to a 1:1 binding model using Scrubber 2.0 curve fitting software.

In assay [2] the target is T2, human monomeric EGFR (EGFR.mmh) (human, UniProt P00533 25-647).
T2 construct: Soluble monomeric EGFR construct
Kind of assay: SPR 37C, mAb captured by anti-human Fc, EGFR.mmh analyte. The procedure: as §1

In assay [3] the target is EGFR on A431 epidermoid carcinoma cells (human, UniProt P00533 25-1210). In words: cell-based or functional assay.

B1: H1H136P (antibody, human IgG1, V domains shown)
VH: EVQLVESGGGLVQPGGSLRLSCAASGFTFSSYDMSWVRQAPGKGLEWVSGISGSGDSTYYAGSVKGRFTISRDNSKNTLYLQMNSLRAEDTAVYYCAYDYSNYWDHYGMDVWGQGTTVTVSS
VL: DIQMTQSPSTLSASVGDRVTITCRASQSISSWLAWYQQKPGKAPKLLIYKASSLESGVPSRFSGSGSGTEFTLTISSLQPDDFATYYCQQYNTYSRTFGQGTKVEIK
notes: Human IgG1 Fc (H1H)
Take B1: the binding result in assay [1] and in assay [2] was “no binding” throughout. Further, the “ADCC EC50” value in assay [3] turned out to be 1.49e-09 Molar. In addition, in assay [3], the “Maximum Cell Killing (%)” value amounted to 27%.

B2: H1H161P (antibody, human IgG1, V domains shown)
VH: QVQLVESGGGVVQPGRSLRLSCAASGFTFSNYGMYWVRQAPGKGLEWVTFISYDGSNKNYVDSMKGRFTISRDNSKNTLYLQMNSLRVEDTAVYYCAKDRISGTPWYGMDVWGQGTTVTVSS
VL: DIQMTQSPSSLSASVGDRVTITCRASQDIADYLAWFQQKPGKAPKSLIFAASSLESWVPLKFSGSGSGTDFTLTISSLQPEDFATYYCQQYSRFPITFGQGTKVEIK
notes: Human IgG1 Fc (H1H)
What is called Kd is a measure of binding affinity in units of concentration. A word on the koff: it is the first-order rate constant of dissociation. As a reminder, the kon is the second-order rate constant of association. A lower kon goes with slower complex formation. Regarding B2, in assay [1], binding was characterised by a dissociation constant (Kd) of 0.00159 nM, the koff worked out at 2.76e-06 s⁻¹, the kon is 1.73e+06 M⁻¹ s⁻¹ and the t1/2 turned out to be 4190 min. In assay [2], this molecule returned a Kd of 0.655 nM, a koff of 0.000321 s⁻¹, a kon of 489000 M⁻¹ s⁻¹ and a t1/2 of 36 min. In assay [3], the “ADCC EC50” value is 9.8e-12 Molar and the “Maximum Cell Killing (%)” value amounted to 38%.

B3: H1H155P (antibody, human IgG1, V domains shown)
VH: QVQLVESGGGVVQPGRSLRLSCAASGFTFSIYGMHWVRQAPGKGLEWVTVISDDGSKKYYVDSVKGRFTLSRDNSKNTLYLQMNSLRAEDTAVYYCARDRITGTNWYGMDVWGQGTTVTVSS
VL: DIQMTQSPSSLSASVGDRVTITCRASQDISNYLAWFQQKPGKAPKSLIFAASSLQSGGPSKFSGSGSGTDFTLTISSLQPEDFATYYCQQYNRYPFTFGPGTKVDIK
notes: Human IgG1 Fc (H1H)
In assay [1], B3 showed a Kd of 0.321 nM, a koff of 0.000106 s⁻¹, an on-rate (kon) of 329000 M⁻¹ s⁻¹ and a t1/2 of 109 min. In assay [2], this molecule came in with a Kd of 0.962 nM, an off-rate (koff) of 0.000169 s⁻¹, a kon of 176000 M⁻¹ s⁻¹ and a t1/2 of 68 min. Moreover, in assay [3], the “ADCC EC50” value is 1.67e-11 Molar and the “Maximum Cell Killing (%)” value turned out to be 30%.

B4: H1H159P (antibody, human IgG1, V domains shown)
VH: EVQLVESGGGLVQPGGSLRLSCAASRFTFTNYWMSWVRQAPGKGLEWVAKIKQDGSEKYYLDSVKDRFTISRDNAKNSLYLQMNSLRAEDTAVYYCASSSSWYDYYYGMDVWGHGTTVTVSS
VL: EIVLTQSPDFQSVTPKEKVTITCRASQSIGTNLHWYQQRPDQSPKLLIKFASQSFSGVPSRFSGSGSGTDFTLTINSLEAEDAATYYCHQTNFLPHTFGGGTKVEIKR
notes: Human IgG1 Fc (H1H)
Take B4: in assay [1], the Kd was found to be 0.00344 nM, the koff amounted to 5.63e-06 s⁻¹, the kon turned out to be 1.64e+06 M⁻¹ s⁻¹ and the t1/2 stood at 2050 min. Also, in assay [2], the Kd came to 0.682 nM, the koff is 0.000325 s⁻¹, the kon was 476000 M⁻¹ s⁻¹ and the t1/2 is 36 min. In addition, in assay [3], the “ADCC EC50” value turned out to be 2.69e-09 Molar and the “Maximum Cell Killing (%)” value is 60%.

B5: H1H145P (antibody, human IgG1, V domains shown)
VH: EVQLVESGGGVVQPGGSLRLSCAASGFTFDDYAMHWVRQAPGKGLEWVSLISGDGGSTYYADSVKGRFTISRDNSKNSLYLQMNSLRTEDTALYYCAKNYDSSGYYYPYYYYYGMDVWGQGTTVTVSS
VL: not shown
notes: Human IgG1 Fc (H1H)
In assay [1], B5 came in with a Kd of 0.232 nM, a koff of 5.86e-05 s⁻¹, a kon of 252000 M⁻¹ s⁻¹ and a t1/2 of 197 min. In assay [2], this molecule displayed a dissociation constant (Kd) of 1.43 nM, a koff of 0.000195 s⁻¹, a kon of 137000 M⁻¹ s⁻¹ and a t1/2 of 59 min. For the same molecule, the “Maximum Cell Killing (%)” value in assay [3] came out at 0%.

B6: H1H157P (antibody, human IgG1, V domains shown)
VH: QVQLVESGGGVVQPGRSLRLTCKASGFTFSIYGINWVRQASGKGLDWVAVISDDGSDKKYADSVKGRFTISRDNSKNTVYLEMSRLRSEDTAVYFCAKDRFTGNHYYGMDVWGQGTTVTVSS
VL: DIQMTQSPSSLSASVGDRVSITCRASQDISDYLAWFQQKPGKAPKSLIYAASILQNGVPSRFSGSGSGTDFTLTISSLQPEDFALYYCHQYNRFPWTFGQGTKVEIK
notes: Human IgG1 Fc (H1H)
As to B6, in assay [1], the binding result is given as “no binding”. Further, the binding result in assay [2] is reported as “no binding”. For the same molecule, in assay [3], the “ADCC EC50” value worked out at 2.27e-13 Molar and the “Maximum Cell Killing (%)” value came out at 36%.

B7: H1H158P (antibody, human IgG1, V domains shown)
VH: QVQLVESGGGVVQPGGSLRLSCAASGFTFSIYGIHWVRQAPGKGLEWVAVISDDGSNKKYADSVKGRFTISRDNSKNTLYLQMNSLRAEDTAIFYCAKDRITGTHYYGMDVWGQGTTVTVSS
VL: DIQMTQSPSSLSASVGDRVSITCRASQDISNYLAWFQQKPGKAPKSLIYAASSLQSGVPSKFSGSGSGIEFTLTISSLQPEDFSTYYCHQYNRFPWTFGQGTKVEIK
notes: Human IgG1 Fc (H1H)
For B7, in assay [1], the affinity, expressed as Kd, was 0.0241 nM; the koff worked out at 9.84e-06 s⁻¹; the kon was found to be 408000 M⁻¹ s⁻¹; the t1/2 was 1170 min. In assay [2], this molecule returned a Kd of 5.9 nM, a koff of 0.000773 s⁻¹, a kon of 131000 M⁻¹ s⁻¹ and a t1/2 of 15 min. Further, in assay [3], the “ADCC EC50” value worked out at 2.32e-12 Molar and the “Maximum Cell Killing (%)” value was found to be 28%.

B8: H1H153P (antibody, human IgG1, V domains shown)
VH: QVQLVESGGGVVQPGKSLRLSCAASGFTFSIYGMNWVRQAPGKGLDWVAVISDDGSNKDYVDSVRGRFTISRDNSKNTLYLQMNSLSAEDTAVYYCAKDRITGTHYYGLDVWGQGTTVTVSS
VL: DIQMTQSPSSLSASVGDRITITCRASQDIANYLAWFQQKPGNAPTSLIYAASILQSGVPSKFSGSGSGTDFTLTITSLQPEDFASYYCQQYNRKPWTFGRGTKVEIK
notes: Human IgG1 Fc (H1H)
Take B8: in assay [1], the Kd is 0.0351 nM, the koff is 8.23e-06 s⁻¹, the kon worked out at 234000 M⁻¹ s⁻¹ and the t1/2 amounted to 1400 min. In assay [2], this molecule showed a Kd of 3.09 nM, a dissociation rate constant (koff) of 0.000235 s⁻¹, a kon of 76100 M⁻¹ s⁻¹ and a t1/2 of 49 min. Further, in assay [3], the “ADCC EC50” value turned out to be 2.65e-11 Molar and the “Maximum Cell Killing (%)” value is 31%.

B9: H1H171P (antibody, human IgG1, V domains shown)
VH: QVQLVESGGGVVQPGRSLRLSCAASGFTFSIYGMNWVRQGPGKGLDWVAVISDDGSNKDYVDSVRGRFTISRDNSKNTLYLQMNSLSAEDTAVYYCAKDRITGTHYYGMDVWGQGTTVTVSS
VL: DIQMTQSPSSLSASVGDRITITCRASQDIANYLAWFQQKPGNAPTSLIYAASILQSGVPSKFSGSGSGTDFTLTITSLQPEDFASYYCQQYNRKPWTFGRGTKVEIK
notes: Human IgG1 Fc (H1H)
For B9, in assay [1], the Kd was found to be 0.103 nM, the dissociation rate constant (koff) is 3.48e-05 s⁻¹, the kon is 339000 M⁻¹ s⁻¹ and the t1/2 worked out at 332 min. Moreover, in assay [2], the affinity, expressed as Kd, was 14.2 nM; the off-rate constant (koff) is 0.00113 s⁻¹; the association rate constant (kon) was 79400 M⁻¹ s⁻¹; the t1/2 was determined as 10 min. In assay [3], the “ADCC EC50” value turned out to be 8.94e-13 Molar and the “Maximum Cell Killing (%)” value turned out to be 27%.
